This experiment relates to NL-Rluc virus. Nature of the experiment: Combinectin potency assay: antiviral EC50, NL-Rluc virus in MT-2 cells, luciferase readout. It is filed as cell-based, HIV-1. The method, boiled down:
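MT-2 cells infected with replication-competent NL-Rluc HIV (nef replaced by Renilla luciferase) at MOI 0.01 for 1 h, then added to threefold-diluted peptides (11 concentrations, triplicate). After 4–5 days, luciferase measured by Dual Luciferase; EC50 relative to no-peptide wells.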

Where [1] appears, read: Anti-N17 Adnectin - HIV fusion peptide inhibitor Combinectin, Table 4.

Where only a bound is given, the exact number is not on record here.

B1: 415 (protein)
chain: MGHHHHHHGVSDVPRDLEVVAATPTSLLISWDAPAVTVRYYRITYGETGGNSPVQEFTVPGSKSTATISGLKPGVDYTITVYAVTGRGESPASSKPISINYRTEIDGGGGSGGGGSGGGGSGGGGSRIEALIRAAQEQQEKNEAALRELFKWAS
modifications: Anti-N17 Adnectin - HIV fusion peptide inhibitor Combinectin
For orientation: EC50 means the concentration needed to bring the measured effect to its halfway point. As to B1, the EC50 under setting [1] was over 1000 nM.

B2: 419 (protein)
chain: MGHHHHHHGVSDVPRDLEVVAATPTSLLISWDAPAVTVRYYRITYGETGGNSPVQEFTVPGSKSTATISGLKPGVDYTITVYAVTGRGESPASSKPISINYRTEIDGGGGSGGGGSGGGGSGGGGSRIEALIRAAQEQQEKNEAALRELQKWAS
modifications: Anti-N17 Adnectin - HIV fusion peptide inhibitor Combinectin
Turning to B2, the EC50 under setting [1] is over 1000 nM.

B3: 417 (protein)
chain: MGHHHHHHGVSDVPRDLEVVAATPTSLLISWDAPAVTVRYYRITYGETGGNSPVQEFTVPGSKSTATISGLKPGVDYTITVYAVTGRGESPASSKPISINYRTEIDGGGGSGGGGSGGGGSGGGGSRIEALIRAAQEQQEKNEAALRELYKWAS
modifications: Anti-N17 Adnectin - HIV fusion peptide inhibitor Combinectin
With B3, the concentration giving a half-maximal response (EC50) under setting [1] was 428 nM.

B4: 418 (protein)
chain: MGHHHHHHGVSDVPRDLEVVAATPTSLLISWDAPAVTVRYYRITYGETGGNSPVQEFTVPGSKSTATISGLKPGVDYTITVYAVTGRGESPASSKPISINYRTEIDGGGGSGGGGSGGGGSGGGGSRIEALIRAAQEQQEKNEAALRELLKWAS
modifications: Anti-N17 Adnectin - HIV fusion peptide inhibitor Combinectin
Consider B4, for which the EC50 under setting [1] was 218 nM.

B5: 416 (protein)
chain: MGHHHHHHGVSDVPRDLEVVAATPTSLLISWDAPAVTVRYYRITYGETGGNSPVQEFTVPGSKSTATISGLKPGVDYTITVYAVTGRGESPASSKPISINYRTEIDGGGGSGGGGSGGGGSGGGGSRIEALIRAAQEQQQKNEAALRELDKWAS
modifications: Anti-N17 Adnectin - HIV fusion peptide inhibitor Combinectin
With B5, the EC50 under setting [1] is over 1000 nM.

B6: 138 (protein)
chain: MGVSDVPRDLEVVAATPTSLLISWHYPFEGYVTYYRITYGETGGNSHVQEFTVPVGYTTATISGLKPGVDYTITVYAVTSSKGYVYFPISINYRTEIDKPSQHHHHHH
modifications: Adnectin
Regarding B6, under “Anti-N17 Adnectin, Table 3”, the EC50 amounted to 3300 nM.

B7: 412 (protein)
chain: MGHHHHHHGGSVSDVPRDLEVVAATPTSLLISWEYKVNAYRYYRITYGETGGNSPVQEFTVPSVLSTATISGLKPGVDYTITVYAVTYGVDSDPISINYRTEIDGGGGSGGGGSGGGGSGGGGSEYEARIEALIRAAQEQQEKNEAALRELYKWAS
modifications: Anti-N17 Adnectin - HIV fusion peptide inhibitor Combinectin
Turning to B7, the EC50 under setting [1] turned out to be 2980 nM.

B8: 420 (protein)
chain: MGHHHHHHGGSVSDVPRDLEVVAATPTSLLISWEYKVHPYRYYRITYGETGGNSPVQEFTVPSVLSTATISGLKPGVDYTITVYAVTYGDDSAPISINYRTEIDGGGGSGGGGSGGGGSGGGGSRIEALIRAAQEQQEKNEAALRELDKWAS
modifications: Anti-N17 Adnectin - HIV fusion peptide inhibitor Combinectin
For the molecule B8, the concentration giving a half-maximal response (EC50) under setting [1] is 8 nM.

B9: 428 (protein)
chain: MGHHHHHHTSGVSDVPRDLEVVAATPTSLLISWDAPAVTVGWYHIGYNVEGEPASYQYFRVPGSKSTATISGLKPGVEYMIFVNAVTGSGAREEFSLPISINYRTEIDGGGGSGGGGSGGGGSGGGGSEYEARIEALIRAAQEQQEKNEAALRELDKWTGVWGNYEKV
modifications: Anti-N17 Adnectin - HIV fusion peptide inhibitor Combinectin
Regarding B9, the EC50 under setting [1] stood at 50 nM.

B10: 414 (protein)
chain: MGHHHHHHTSGVSDVPRDLEVVAATPTSLLISWDAPAVTVGWYHIGYNVEGEPASYQYFRVPGSKSTATISGLKPGVEYMIFVNAVTGSGAREEFSLPISINYRTEIDGGGGSGGGGSGGGGSGGGGSEYEARIEALIRAAQEQQEKNEAALRELDKWTGVWGNYEKV
modifications: Anti-N17 Adnectin - HIV fusion peptide inhibitor Combinectin
Consider B10, for which the EC50 under setting [1] turned out to be 4 nM.

B11: 350 (protein)
chain: MGHHHHHHGGSVSDVPRDLEVVAATPTSLLISWEYKVHPYRYYRITYGETGGNSPVQTFTVPSVLSTATISGLKPGVDYTITVYAVTYGDDSAPISINYRTEID
modifications: Adnectin
In the case of B11, the EC50 (Anti-N17 Adnectin, Table 3) was found to be 191 nM.

B12: 361 (protein)
chain: MGHHHHHHGGSVSDVPRDLEVVAATPTSLLISWEYKVYHGRYYRITYGETGGNSPVQEFTVPSVLSTATISGLKPGVDYTITVYAVTYGDDSAPISINYRTEID
modifications: Adnectin
With B12, under “Anti-N17 Adnectin, Table 3”, the EC50 was over 1000 nM.

B13: 362 (protein)
chain: MGHHHHHHGGSVSDVPRDLEVVAATPTSLLISWEYKVHPYRYYRITYGETGGNSPVQEFTVPSVLSTAKLSGLKPGVDYTITVYAVTYGDDSAPISINYRTEID
modifications: Adnectin
Take B13: the EC50 (Anti-N17 Adnectin, Table 3) amounted to 121 nM.

B14: 356 (protein)
chain: MGHHHHHHGGSVSDVPRDLEVVAATPTSLLISWEYKVHPYRYYRITYGETGGNSPVQEFTVPSVLSTAELSGLKPGVDYTITVYAVTYGDDSAPISINYRTEID
modifications: Adnectin
Consider B14, for which the EC50 (Anti-N17 Adnectin, Table 3) came to 31 nM.

B15: 351 (protein)
chain: MGHHHHHHGGSVSDVPRDLEVVAATPTSLLISWEYKVHPYRYYRITYGETGGNSPVQAFTVPSVLSTATISGLKPGVDYTITVYAVTYGKDSAPISINYRTEID
modifications: Adnectin
For the molecule B15, the concentration for a half-maximal effect (EC50) (Anti-N17 Adnectin, Table 3) turned out to be 215 nM.

B16: 358 (protein)
chain: MGHHHHHHGGSVSDVPRDLEVVAATPTSLLISWEYKVHPYRYYRITYGETGGNSPVQEFTVPSVLSTATISGLKPGVDYTITVYAVTYGDDSTPISINYRTEID
modifications: Adnectin
For the molecule B16, under “Anti-N17 Adnectin, Table 3”, the EC50 is over 1000 nM.

B17: 352 (protein)
chain: MGHHHHHHGGSVSDVPRDLEVVAATPTSLLISWEYKVHPYRYYRITYGETGGNSPVQEFTVPSVLSTATISGLKPGVDYTITVYAVTYGDLSAPISINYRTEID
modifications: Adnectin
Take B17: the 50% effective concentration (EC50) (Anti-N17 Adnectin, Table 3) came out at 77 nM.

B18: 354 (protein)
chain: MGHHHHHHGGSVSDVPRDLEVVAATPTSLLISWEYKVSAWRYYRITYGETGGNSPVQEFTVPSVLSTATISGLKPGVDYTITVYAVTYGDDSAPISINYRTEID
modifications: Adnectin
As to B18, the EC50 (Anti-N17 Adnectin, Table 3) is over 1000 nM.

B19: 353 (protein)
chain: MGHHHHHHGGSVSDVPRDLEVVAATPTSLLISWEYKVHPYRYYRITYGETGGNSPVQEFTVPSVLSTATISGLKPGVDYTITVYAVTYGDDSGPISINYRTEID
modifications: Adnectin
B19: the EC50 (Anti-N17 Adnectin, Table 3) stood at 19 nM.

B20: 359 (protein)
chain: MGHHHHHHGGSVSDVPRDLEVVAATPTSLLISWEYKVSAYRYYRITYGETGGNSPVQEFTVPSVLSTATISGLKPGVDYTITVYAVTYGDDSAPISINYRTEID
modifications: Adnectin
Take B20: where the note is “Anti-N17 Adnectin, Table 3”, the EC50 was over 1000 nM.

B21: 355 (protein)
chain: MGHHHHHHGGSVSDVPRDLEVVAATPTSLLISWEYKVSTYRYYRITYGETGGNSPVQEFTVPSVLSTATISGLKPGVDYTITVYAVTYGDDSAPISINYRTEID
modifications: Adnectin
Consider B21, for which the EC50 (Anti-N17 Adnectin, Table 3) is over 1000 nM.

B22: 363 (protein)
chain: MGHHHHHHGGSVSDVPRDLEVVAATPTSLLISWEYKVHPYRYYRITYGETGGNSPVQEFTVPSVLSTATISGLKPGVDYTITVYAVTYGNDSAPISINYRTEID
modifications: Adnectin
Turning to B22, where the note is “Anti-N17 Adnectin, Table 3”, the concentration for a half-maximal effect (EC50) was 130 nM.

B23: 357 (protein)
chain: MGHHHHHHGGSVSDVPRDLEVVAATPTSLLISWEYKVHPYRYYRITYGETGGNSPVQEFTVPSVLSTATISGLKPGVDYTITVYAVTYGDLSAPISINYRTEID
modifications: Adnectin
For B23, the EC50 (Anti-N17 Adnectin, Table 3) was 178 nM.

B24: 360 (protein)
chain: MGHHHHHHGGSVSDVPRDLEVVAATPTSLLISWEYKVTGYRYYRITYGETGGNSPVQEFTVPSVLSTATISGLKPGVDYTITVYAVTYGDDSAPISINYRTEID
modifications: Adnectin
On to B24, for which the EC50 (Anti-N17 Adnectin, Table 3) is over 1000 nM.

B25: 137 (protein)
chain: MGVSDVPRDLEVVAATPTSLLISWHDGIGEERYYRITYGETGGNSPVQEFTVPMDDITATISGLKPGVDYTITVYAVTVGDVISVLHEPISINYRTEIDKPSQHHHHHH
modifications: Adnectin
As to B25, the EC50 (Anti-N17 Adnectin, Table 3) was 80 nM.

B26: 411 (protein)
chain: MGHHHHHHGGSVSDVPRDLEVVAATPTSLLISWEYKVNAYRYYRITYGETGGNSPVQEFTVPSVLSTATISGLKPGVDYTITVYAVTYGVDSDPISINYRTEIDGGGGSGGGGSGGGGSGGGGTIAEYAARIEALIRAAQEQQEKNEAALRELYKWAS
modifications: Anti-N17 Adnectin - HIV fusion peptide inhibitor Combinectin
In the case of B26, under setting [1], the EC50 was found to be 4340 nM.

B27: 413 (protein)
chain: MGHHHHHHGVSDVPRDLEVVAATPTSLLISWKYKVHPYRYYRITYGETGGNSPVQEFTVPSVLSTATISGLKPGVDYTITVYAVTYGVNSLPISINYRTEIDGGGGSGGGGSGGGGSGGGGTEYEARIEALIRAAQEQQEKNEAALRELKEWASIWN
modifications: Anti-N17 Adnectin - HIV fusion peptide inhibitor Combinectin
With B27, the EC50 under setting [1] is 6 nM.
